The supplement of paper PMC7877785
± gives the uncertainty stated by the source.

Test: self-splicing fitness, log relative to wild type (ln ratio); higher = more splicing; Tetrahymena group I intron in knt gene, E. coli kanamycin selection, DiMSum; sequences stand for … in CUCUCU…GGAGGGAAAAGUUAUCAGGCAUGCACCUGGUAGCUAGUCUUUAAACCAAUAGAUUGCAUCGGUUUAAAAGGCAAGACCGUCAAAUUGCGGGAAAGGGGUCAACAGCCGUUCAGUACCAAGUCUCAGGGGAAACUUUGAGAUGGCCUUGCAAAGGGUAUGGUAAUAAGCUGACGGACAUGGUCCUAACCACGCAGCCAAGUCCUAAGUCAACAGAUCUUCUGUUGAUAUGGAUGCAGUUCACAGACUAAAUGUCGGUCGGGGAAGAUGUAUUCUUCUCAUAAGAUAUAGUCGGACCUCUCCUUAAUGGGAGCUAGCGGAUGAAGUGAUGCAACACUGGAGCCGCUGGGAACUAAUUUGUAUGCGAAAGUAUAUUGAUUAGUUUUGGAGUACUCGUGGUCG
Summary of the method: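 Pooled colonies went to amplicon sequencing on an Illumina HiSeq 2500 after six replicate transformations. The plates were LB agar with 100 μg/mL carbenicillin, 50 μM IPTG and 0.2% rhamnose, with or without 25 μg/mL kanamycin, incubated overnight at 37°C or 30°C. The E. coli BL21(DE3) library had all eight P1ex-region intron nucleotides randomised, the intron placed in the knt kanamycin-resistance gene on pET-22b(+). DiMSum fitness is the error-weighted combination of replicate fold changes, kanamycin against none, normalised to wild type.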

Row | Sequence | self-splicing fitness (ln) (30 °C) | self-splicing fitness (ln) (37 °C)
1 | CGGUAGCAAUAUUACGCUAA | -2.88 ± 0.28 | -1.85 ± 0.18
2 | GUUGAGCAAUAUUACGAGGA | -2.48 ± 0.45 | –
3 | UCCUAGCAAUAUUACGGUUU | -1.44 ± 0.083 | -1.16 ± 0.12
4 | GUAUAGCAAUAUUACGAGUU | -3.29 ± 0.19 | -1.17 ± 0.14
5 | CUUAAGCAAUAUUACGUAAU | -2.96 ± 0.13 | -1.56 ± 0.12
6 | UUUGAGCAAUAUUACGUUUC | – | -2.62 ± 0.35
7 | UUUUAGCAAUAUUACGAGAA | -0.897 ± 0.48 | -0.946 ± 0.19
8 | CGUCAGCAAUAUUACGGGGC | -2.73 ± 0.2 | -3.05 ± 0.32
9 | CGGGAGCAAUAUUACGGAUU | -3.51 ± 0.33 | -1.27 ± 0.28
10 | GAGGAGCAAUAUUACGAGUU | -3.46 ± 0.35 | -2.05 ± 0.21
11 | CGCGAGCAAUAUUACGAAAG | -2.75 ± 0.26 | -1.65 ± 0.23
12 | GCAGAGCAAUAUUACGUUGA | -2.53 ± 0.2 | -2.15 ± 0.25
13 | AAGUAGCAAUAUUACGCCAC | -3.93 ± 0.36 | -2.49 ± 0.42
14 | UGAGAGCAAUAUUACGAGCG | -1.84 ± 0.24 | -1.81 ± 0.31
15 | UUCAAGCAAUAUUACGCCCU | -1.34 ± 0.14 | -0.18 ± 0.16
16 | AAAGAGCAAUAUUACGCUGU | -3.2 ± 0.15 | -1.88 ± 0.16
17 | UCUAAGCAAUAUUACGACGG | 0.00998 ± 0.076 | 0.286 ± 0.11
18 | CUAUAGCAAUAUUACGUUCG | -0.385 ± 0.094 | -0.145 ± 0.14
19 | AUUAAGCAAUAUUACGAACC | -1.35 ± 0.29 | -0.847 ± 0.29
20 | CUGCAGCAAUAUUACGCAGU | -1.6 ± 0.14 | -3.15 ± 0.35
21 | GCCAAGCAAUAUUACGCCGU | -2.07 ± 0.087 | -1.45 ± 0.12
22 | AGAUAGCAAUAUUACGGGGU | -3.5 ± 0.16 | -2.26 ± 0.13
23 | CGACAGCAAUAUUACGUUAC | -3.39 ± 0.17 | -2.29 ± 0.2
24 | ACAUAGCAAUAUUACGGACA | -1.57 ± 0.16 | -0.382 ± 0.14
25 | GCAAAGCAAUAUUACGCCCC | -0.913 ± 0.19 | -0.135 ± 0.31

Row | Sequence | self-splicing fitness (ln) (30 °C) | self-splicing fitness (ln) (37 °C)
26 | GCUAAGCAAUAUUACGAUUC | -0.0116 ± 0.081 | -0.128 ± 0.092
27 | GAGAAGCAAUAUUACGGCGU | -0.403 ± 0.12 | 0.0558 ± 0.16
28 | UCUGAGCAAUAUUACGUUAG | -2.36 ± 0.14 | -1.82 ± 0.17
29 | CGGUAGCAAUAUUACGUUUU | -3.83 ± 0.26 | -2.41 ± 0.19
30 | UUUAAGCAAUAUUACGCUUG | -3.29 ± 0.23 | -1.4 ± 0.26
31 | GAAUAGCAAUAUUACGACCG | -1.03 ± 0.16 | -0.447 ± 0.2
32 | CUACAGCAAUAUUACGAAGA | -3.21 ± 0.45 | -2.56 ± 0.41
33 | AUAGAGCAAUAUUACGCUAG | -1.01 ± 0.15 | -0.475 ± 0.15
34 | AUAGAGCAAUAUUACGGGCA | -2.19 ± 0.097 | -1.28 ± 0.11
35 | CGGCAGCAAUAUUACGGCCG | -3.13 ± 0.39 | -1.42 ± 0.39
36 | GCGCAGCAAUAUUACGGCUG | -3.01 ± 0.3 | -1.7 ± 0.29
37 | GCAGAGCAAUAUUACGCUUG | -3.5 ± 0.21 | -2.83 ± 0.31
38 | ACGAAGCAAUAUUACGUCAG | -3.43 ± 0.19 | -1.1 ± 0.12
39 | AUCAAGCAAUAUUACGCUAA | -2.95 ± 0.17 | -1.1 ± 0.14
40 | AAUGAGCAAUAUUACGUUUC | -4.31 ± 0.24 | -2.98 ± 0.25
41 | UCCGAGCAAUAUUACGCAAG | -3.27 ± 0.26 | -1.77 ± 0.32
42 | UCAGAGCAAUAUUACGCGAG | -2.24 ± 0.12 | -1.06 ± 0.13
43 | UAUCAGCAAUAUUACGUUUU | -2.74 ± 0.084 | -1.4 ± 0.085
44 | AUGCAGCAAUAUUACGAUAA | -1.55 ± 0.1 | 0.424 ± 0.092
45 | CCCUAGCAAUAUUACGCUCA | – | -2.67 ± 0.36
46 | AAGUAGCAAUAUUACGCAGC | -3.59 ± 0.34 | -2.3 ± 0.24
47 | GUCUAGCAAUAUUACGUAUA | -1.41 ± 0.13 | -0.887 ± 0.12
48 | ACGAAGCAAUAUUACGCACG | -3.26 ± 0.18 | -2.22 ± 0.17
49 | ACUAAGCAAUAUUACGACCG | -0.45 ± 0.17 | 0.0545 ± 0.21
50 | AGCCAGCAAUAUUACGUGUC | -3.17 ± 0.12 | -0.932 ± 0.083

Row | Sequence | self-splicing fitness (ln) (30 °C) | self-splicing fitness (ln) (37 °C)
51 | CCCAAGCAAUAUUACGGUCA | -2.13 ± 0.12 | -2.22 ± 0.14
52 | ACCAAGCAAUAUUACGCAAU | -2.01 ± 0.1 | -1.04 ± 0.1
53 | ACCUAGCAAUAUUACGGGAU | -2.07 ± 0.1 | -0.904 ± 0.1
54 | GUUUAGCAAUAUUACGUGGC | -0.884 ± 0.32 | -1.46 ± 0.33
55 | AUGGAGCAAUAUUACGGACA | -3.23 ± 0.43 | -1.91 ± 0.2
56 | GUAGAGCAAUAUUACGACAC | -0.732 ± 0.15 | 0.357 ± 0.2
57 | AGUUAGCAAUAUUACGAUUC | -2.04 ± 0.24 | -0.169 ± 0.26
58 | UGUAAGCAAUAUUACGGCAG | -0.191 ± 0.091 | 0.0264 ± 0.11
59 | CGUUAGCAAUAUUACGUAGC | -3.37 ± 0.22 | -2.68 ± 0.25
60 | UGUGAGCAAUAUUACGACAA | -1.97 ± 0.14 | -1.68 ± 0.14
61 | AACAAGCAAUAUUACGAUAU | -1.42 ± 0.098 | -1.03 ± 0.12
62 | AUUUAGCAAUAUUACGUUAA | -2.52 ± 0.27 | -2.56 ± 0.34
63 | GCAAAGCAAUAUUACGGGUA | -1.55 ± 0.11 | -0.7 ± 0.097
64 | UAAUAGCAAUAUUACGAACG | -0.579 ± 0.071 | -0.187 ± 0.082
65 | GAACAGCAAUAUUACGAUGG | -3.04 ± 0.19 | -1.17 ± 0.13
66 | CACGAGCAAUAUUACGGUCC | -4.36 ± 0.28 | -3.16 ± 0.33
67 | CGUCAGCAAUAUUACGUAGC | -2.81 ± 0.12 | -2.29 ± 0.14
68 | AUGAAGCAAUAUUACGUCCU | -0.113 ± 0.093 | 0.0551 ± 0.11
69 | UGAAAGCAAUAUUACGACUC | -2.17 ± 0.2 | -1.88 ± 0.25
70 | CGAUAGCAAUAUUACGCUUA | -2.23 ± 0.12 | -1.19 ± 0.078
71 | AUUCAGCAAUAUUACGUGUC | -4.2 ± 0.22 | -2.02 ± 0.2
72 | UCAUAGCAAUAUUACGUAUA | -2.54 ± 0.34 | -2.13 ± 0.28
73 | UGACAGCAAUAUUACGCGUA | -0.95 ± 0.094 | -0.353 ± 0.089
74 | CGCGAGCAAUAUUACGCGAU | -3.96 ± 0.24 | -3.09 ± 0.27
75 | GCUCAGCAAUAUUACGUCGG | -2.71 ± 0.14 | -0.555 ± 0.15
